Assay results taken from US20250145723A1 (MINGHUI PHARMACEUTICAL HANGZHOU, published 2025).
Where a chain is given by its changes, count along the chain named. One block for each binder: values may come before it.

How the values were obtained:
[1] = target: T1, recombinant human IGF-1R-his (human, UniProt P08069 31-932); assay: competition ELISA, coated hIGF-1R-his, competitor IGF-1-Fc 1.25 µg/mL
T1 construct: Recombinant his-tagged protein; also called hIGF-1R-his; hIGF1R-his; not shown: his tag
T1 sequence (P08069 31-932 limits assumed): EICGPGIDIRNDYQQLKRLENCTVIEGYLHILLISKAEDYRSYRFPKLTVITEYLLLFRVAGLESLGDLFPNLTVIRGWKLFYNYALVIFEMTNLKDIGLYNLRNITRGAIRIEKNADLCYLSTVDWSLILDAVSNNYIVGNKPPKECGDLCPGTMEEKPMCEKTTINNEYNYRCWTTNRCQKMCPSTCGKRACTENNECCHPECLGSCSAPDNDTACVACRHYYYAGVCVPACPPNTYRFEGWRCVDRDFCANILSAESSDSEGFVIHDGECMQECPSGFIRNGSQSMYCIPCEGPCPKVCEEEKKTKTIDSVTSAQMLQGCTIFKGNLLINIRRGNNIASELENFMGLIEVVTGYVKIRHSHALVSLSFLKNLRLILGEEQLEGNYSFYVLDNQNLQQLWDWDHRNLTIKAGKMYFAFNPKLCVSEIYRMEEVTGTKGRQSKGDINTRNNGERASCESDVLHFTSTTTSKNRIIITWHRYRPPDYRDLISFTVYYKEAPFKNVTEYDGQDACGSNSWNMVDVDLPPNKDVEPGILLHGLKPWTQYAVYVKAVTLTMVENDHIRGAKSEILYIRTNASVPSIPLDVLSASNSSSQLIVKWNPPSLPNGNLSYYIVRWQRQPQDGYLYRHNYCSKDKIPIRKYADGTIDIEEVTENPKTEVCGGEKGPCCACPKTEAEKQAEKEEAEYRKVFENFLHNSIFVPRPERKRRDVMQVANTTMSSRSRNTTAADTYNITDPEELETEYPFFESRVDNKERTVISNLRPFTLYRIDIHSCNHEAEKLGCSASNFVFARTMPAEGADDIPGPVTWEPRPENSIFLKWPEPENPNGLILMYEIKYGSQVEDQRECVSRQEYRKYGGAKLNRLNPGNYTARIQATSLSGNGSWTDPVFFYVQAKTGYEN
Protocol: Recombinant human IGF-1R-his antigens (5 μg/mL) were added to a 96-well plate for coating overnight at 4° C. The plate was washed with PBS, and then was blocked with 1% casein at room temperature for 1 h. The VHH samples were diluted 2-fold serially with 0.1% BSA/PBS, with a starting concentration of 20 μg/mL. […] The plate was washed three times with 0.1% PBST, horseradish peroxidase-labeled anti-human Fc tag antibodies (anti-human IgG-HRP, Abcam ab6759, 1:5,000, containing 1% casein) were added and incubated at room temperature for 30 min, and the plate was washed three times with 0.1% PBST. A TMB substrate solution (Thermo, 34028) was added for color development, the OD₄₅₀ was read using a microplate reader, and a curve was fit and the EC₅₀ value was calculated using Graphpad Prism software.

[2] = target: T2, recombinant mouse IGF-1R-his (mouse, UniProt Q60751 31-933); assay: ELISA, coated antigen 5 µg/mL
T2 construct: not shown: his tag
T2 sequence (Q60751 31-933 limits assumed): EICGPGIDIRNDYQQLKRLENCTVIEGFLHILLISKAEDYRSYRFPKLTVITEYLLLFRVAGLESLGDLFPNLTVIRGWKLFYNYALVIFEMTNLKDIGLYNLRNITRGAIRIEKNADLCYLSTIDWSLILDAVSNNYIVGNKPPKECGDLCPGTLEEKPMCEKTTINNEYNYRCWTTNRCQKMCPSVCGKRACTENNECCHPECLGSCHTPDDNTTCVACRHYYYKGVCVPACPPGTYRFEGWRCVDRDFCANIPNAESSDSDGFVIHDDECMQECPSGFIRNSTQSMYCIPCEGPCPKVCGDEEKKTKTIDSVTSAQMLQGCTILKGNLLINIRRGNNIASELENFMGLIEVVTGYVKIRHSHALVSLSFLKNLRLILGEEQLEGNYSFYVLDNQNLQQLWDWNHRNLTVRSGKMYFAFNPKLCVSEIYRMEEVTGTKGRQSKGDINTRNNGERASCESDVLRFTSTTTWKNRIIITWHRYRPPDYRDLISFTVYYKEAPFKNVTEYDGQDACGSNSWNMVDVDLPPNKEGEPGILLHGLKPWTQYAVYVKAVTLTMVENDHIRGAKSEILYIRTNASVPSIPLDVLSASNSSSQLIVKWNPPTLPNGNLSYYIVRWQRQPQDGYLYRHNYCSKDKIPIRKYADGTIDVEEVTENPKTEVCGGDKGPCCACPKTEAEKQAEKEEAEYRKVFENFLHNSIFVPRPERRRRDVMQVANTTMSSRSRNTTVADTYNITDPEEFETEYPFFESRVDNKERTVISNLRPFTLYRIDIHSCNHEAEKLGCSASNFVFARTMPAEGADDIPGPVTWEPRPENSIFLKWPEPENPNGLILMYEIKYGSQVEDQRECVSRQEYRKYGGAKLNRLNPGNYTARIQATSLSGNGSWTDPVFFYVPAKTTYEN
Protocol: (§1) Recombinant human, monkey and mouse IGF-1R-his antigens and human insulin receptor proteins (5 μg/mL) were added to a 96-well plate for coating overnight at 4° C. The plate was washed with PBS, and then was blocked with 1% casein at room temperature for 1 h. The nanobody-Fc fusion proteins were diluted to 2 μg/mL with 0.1% BSA/PBS, added to the antigen-coated 96-well plate, and incubated at room temperature for 1 hour. The plate was washed three times with 0.1% PBST, horseradish peroxidase-labeled anti-human Fc tag antibodies (anti-human IgG-HRP, Abcam ab6759, 1:5,000, containing 1% casein) were added and incubated at room temperature for 30 min, and the plate was washed three times with 0.1% PBST. A TMB substrate solution (Thermo, 34028) was added for color development, and the OD₄₅₀ was read using a microplate reader.

[3] = target: T3, human insulin receptor protein (human, UniProt P06213-2 28-944, limits assumed); assay: ELISA, coated antigen 5 µg/mL
T3 construct: also called human insulin receptor proteins
T3 sequence (P06213 other isoform, or with tags, fused parts or gaps limits assumed): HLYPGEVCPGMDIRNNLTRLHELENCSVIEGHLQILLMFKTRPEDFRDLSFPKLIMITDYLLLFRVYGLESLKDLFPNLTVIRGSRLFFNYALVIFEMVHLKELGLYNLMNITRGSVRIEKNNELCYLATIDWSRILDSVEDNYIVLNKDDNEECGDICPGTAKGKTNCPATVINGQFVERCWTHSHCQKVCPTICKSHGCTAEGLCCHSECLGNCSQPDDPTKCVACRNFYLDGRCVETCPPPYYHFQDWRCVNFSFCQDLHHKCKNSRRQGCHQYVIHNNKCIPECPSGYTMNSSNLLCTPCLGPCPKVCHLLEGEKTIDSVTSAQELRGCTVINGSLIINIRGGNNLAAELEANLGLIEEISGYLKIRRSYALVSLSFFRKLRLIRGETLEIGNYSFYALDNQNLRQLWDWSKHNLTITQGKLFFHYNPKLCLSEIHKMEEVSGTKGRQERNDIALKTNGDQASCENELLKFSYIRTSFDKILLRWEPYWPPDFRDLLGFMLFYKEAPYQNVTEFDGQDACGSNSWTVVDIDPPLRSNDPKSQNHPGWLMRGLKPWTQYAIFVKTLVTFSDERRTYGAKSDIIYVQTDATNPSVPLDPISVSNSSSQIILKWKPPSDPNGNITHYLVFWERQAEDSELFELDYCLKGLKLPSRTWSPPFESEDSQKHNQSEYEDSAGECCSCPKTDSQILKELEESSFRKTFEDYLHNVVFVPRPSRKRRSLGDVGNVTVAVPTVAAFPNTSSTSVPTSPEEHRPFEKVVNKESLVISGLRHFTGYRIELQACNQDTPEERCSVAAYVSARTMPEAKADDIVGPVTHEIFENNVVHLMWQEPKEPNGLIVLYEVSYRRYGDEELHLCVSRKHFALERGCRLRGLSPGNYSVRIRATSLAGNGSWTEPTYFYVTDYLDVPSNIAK
Protocol: as §1

[4] = target: T1, recombinant human IGF-1R-his; assay: competition ELISA, coated hIGF-1R-his, competitor biotinylated IGF-1
Protocol: Recombinant human IGF1R-his antigen (5 μg/mL) was added to a 96-well plate for coating overnight at 4° C. The plate was washed 4 times with 1×TBST, and then was blocked with 2% BSA at room temperature for 1.5 h. The plate was washed four times with 1×TBST, and 50 μL of nanobody-Fc fusion proteins of different concentrations (with a starting concentration of 10 μg/mL, 2-fold serially diluted) and 50 μL of biotinylated IGF-1 ([…]) were added to the antigen-coated 96-well plate and incubated at 37° C. for 1 h. The plate was washed 4 times with 1×TBST, horseradish peroxidase-labeled Streptavidin (Thermo, 21126) was added and incubated at 37° C. for 1 h, and the plate was washed 4 times with 1×TBST. TMB substrate solution was added at 200 μL per well for color development in the dark for 20 min, 50 μL of 1 M H₂SO₄ was added to terminate the reaction, and the OD₄₅₀ was read using a microplate reader. A curve was fit and the IC₅₀ value was calculated using Graphpad Prism software.

[5] = target: T1, recombinant human IGF-1R-his; assay: competition ELISA, coated hIGF-1R-his, competitor biotinylated IGF-1-Fc
Protocol: (§2) Recombinant human IGF-1R-his antigens (5 μg/mL) were added to a 96-well plate for coating overnight at 4° C. The plate was washed 4 times with 1×TBST, and then was blocked with 2% BSA at 37° C. for 1.5 h. The plate was washed four times with 1×TBST. A volume of 50 μL of biotinylated IGF-1-Fc (2.5 μg/mL) or IGF-2 (N-Avi & N-Fc 4 μg/mL), and 50 μL of nanobody-Fc fusion proteins of different concentrations (with a starting concentration of 10 μg/mL, 2-fold serially diluted) were added to the 96-well plate and incubated at 37° C. for 1 h. The plate was washed 4 times with 1×TBST, horseradish peroxidase-labeled Streptavidin (Thermo, 21126) was added and incubated at 37° C. for 1 h, and the plate was washed 4 times with 1×TBST. TMB substrate solution was added at 200 μL/well for color development in the dark for 20 min, 50 μL of 1 M H₂SO₄ was added to terminate the reaction, and the OD₄₅₀ was read using a microplate reader. A curve was fit and the IC₅₀ value was calculated using Graphpad Prism software.

[6] = target: T1, recombinant human IGF-1R-his; assay: ELISA, coated hIGF-1R-his
Protocol: Recombinant human IGF-1R-his antigens (2 μg/mL) were added to a 96-well plate for coating overnight at 4° C. The plate was washed three times with PBST, and then was blocked with PBST containing 5% skimmed milk powder at room temperature for 2 h. The blocking solution was discarded, the plate was washed three times with PBST, and then 30 μL of nanobody-Fc fusion proteins of different concentrations were added and incubated at room temperature for 1 h. The plate was washed 3 times with PBST, horseradish peroxidase-labeled anti-human Fc antibodies (abcam, ab97225) were added at 30 μL/well and incubated at room temperature for 1 h, and the plate was washed 3 times with PBST. TMB substrate solution was added at 30 μL/well for color development in the dark for 5-30 min, 30 μL of 2 M H₂SO₄ was added to terminate the reaction, and the OD₄₅₀ was read using a microplate reader. A curve was fit and the EC₅₀ value was calculated using Graphpad Prism software.

[7] = target: T1, recombinant human IGF-1R-his; assay: competition ELISA, coated hIGF-1R-his, competitor IGF-2 (N-Avi & N-Fc)
Protocol: as §2

- binding result [2]: no binding (tested: 2 µg/mL)
- binding result [3]: no binding (tested: 2 µg/mL)
- IC50 [4]: 0.435 µg/mL
B2: 5115-Fc fusion protein (Fc fusion)
VHH: EVQLVESGGGLVQAGGSLRLSCAVSGRTFSSFVMGWFRQAPGKEREFVAAISGSGSRANYADSVKGRFTVSRDNANNTVYLQMNSLKPDDTALYYCAANPRRATPDYTQYAYWGQGTQVTVSS
notes: C-terminus of the VHH linked to the N-terminus of human Fc; not shown: The human Fc segment; Any hinge or linker is also unstated

- binding result [2]: no binding (tested: 2 µg/mL)
- binding result [3]: no binding (tested: 2 µg/mL)
- IC50 [5]: 0.236 µg/mL
- EC50 [6]: 0.0327 µg/mL
- IC50 [7]: 0.177 µg/mL
B4: 5115-H0-Fc (Fc fusion)
chain: EVQLVESGGGLVQPGGSLRLSCAASGRTFSSFVMSWFRQAPGKEREFVSAISGSGSRAYYADSVKGRFTISRDNSKNTLYLQMNSLRAEDTAVYYCAANPRRATPDYTQYAYWGQGTQVTVSS
notes: Humanized VHH-Fc; Fc not specified; not shown: Fc

Continued, binder first:

B1: nanobody 5115 (VHH) (VHH)
VHH: B2 VHH
- IC50 [1]: 0.24 µg/mL

B3: nanobody 5666 (VHH) (VHH)
VHH: B2 VHH with F32Y, F47L, A58S, N84S, K87R, A92G, P105T
- IC50 [1]: 0.7 µg/mL
